In publication PMC2248580 one finds Kd, koff and kon data, which are given here for two substances.

As a reminder, the Kd is a measure of binding affinity in units of concentration. Low values mean a tighter complex, high ones a looser complex. For orientation: koff means a measure of how fast the partners let go of each other. Low values mean slow dissociation, high ones fast dissociation. One may read the kon as the second-order rate constant of association. Read a high kon as fast association.

The target in the assay is human activated blood coagulation factor X (FXa) (human). Briefly: SPR; […]; 37°C; HBS (10 mM Hepes, 150 mM NaCl, 5 mM CaCl2, 0.005% P20, pH 7.4); Langmuir fit; […]. (In general: Surface plasmon resonance follows binding to a sensor surface in real time, without labels.)

“CbII, the basic subunit of the CbI-CbII complex (β-neurotoxin) from Pseudocerastes fieldi venom (enzyme)” came in with a Kd of 20 nM, a koff of 0.0085 s⁻¹ and a kon of 420000 M⁻¹ s⁻¹.

In turn, “bAhp, the basic PLA2 from Gloydious (Agkistrodon) halys pallas venom (from UniProt O42187 17-138) (enzyme)” registered a Kd of 400 nM, a koff of 0.016 s⁻¹ and an association rate constant (kon) of 40000 M⁻¹ s⁻¹.
